{"source": "patent US12551573B2", "about": "“Compositions and methods for the targeting of PCSK9” (Scribe Therapeutics Inc., priority 2022, dated 2026)", "molecules": {"B1": {"name": "CasX 491: catalytically-active CasX variant 491 (protein)", "chain": "QEIKRINKIRRRLVKDSNTKKAGKTGPMKTLLVRVMTPDLRERLENLRKKPENIPQPISNTSRANLNKLLTDYTEMKKAILHVYWEEFQKDPVGLMSRVAQPASKKIDQNKLKPEMDEKGNLTTAGFACSQCGQPLFVYKLEQVSEKGKAYTNYFGRCNVAEHEKLILLAQLKPEKDSDEAVTYSLGKFGQRALDFYSIHVTKESTHPVKPLAQIAGNRYASGPVGKALSDACMGTIASFLSKYQDIIIEHQKVVKGNQKRLESLRELAGKENLEYPSVTLPPQPHTKEGVDAYNEVIARVRMWVNLNLWQKLKLSRDDAKPLLRLKGFPSFPLVERQANEVDWWDMVCNVKKLINEKKEDGKVFWQNLAGYKRQEALRPYLSSEEDRKKGKKFARYQLGDLLLHLEKKHGEDWGKVYDEAWERIDKKVEGLSKHIKLEEERRSEDAQSKAALTDWLRAKASFVIEGLKEADKDEFCRCELKLQKWYGDLRGKPFAIEAENSILDISGFSKQYNCAFIWQKDGVKKLNLYLIINYFKGGKLRFKKIKPEAFEANRFYTVINKKSGEIVPMEVNFNFDDPNLIILPLAFGKRQGREFIWNDLLSLETGSLKLANGRVIEKTLYNRRTRQDEPALFVALTFERREVLDSSNIKPMNLIGVDRGENIPAVIALTDPEGCPLSRFKDSLGNPTHILRIGESYKEKQRTIQAKKEVEQRRAGGYSRKYASKAKNLADDMVRNTARDLLYYAVTQDAMLIFENLSRGFGRQGKRTFMAERQYTRMEDWLTAKLAYEGLSKTYLSKTLAQYTSKTCSNCGFTITSADYDRVLEKLKKTATGWMTTINGKELKVEGQITYYNRYKRQNVVKDLSVELDRLSEESVNNDISSWTKGRSGEALSLLKKRFSHRPVQEKFVCLNCGFETHADEQAALNIARSWLFLRSQEYKKYQTNKTTGNTDKRAFVETWQSFYRKKLKEVWKPAV", "modifications": "listed as DNA"}}, "key": {"[1]": {"system": "B2M locus", "experiment": "B2M repression (HLA-negative cells by flow cytometry) in HEK293T cells transfected with LTRP plasmids", "format": "cell-based, human", "settings": "for Mean % HLA-negative cells: HEK293T cells, B2M-targeting spacer 7.37", "experimental": "Each construct was tested in triplicate.\nEach construct was tested in triplicate. […] Cells were harvested for repression analysis at day 5, day 12, day 21, and day 51 post-transfection.\nEach construct was tested in triplicate. […] Cells were harvested for repression analysis at day 8, day 13, day 20, and day 27 post-transfection. […] In addition, cells were also harvested on day 5 post-transfection for gDNA extraction for bisulfite sequencing to assess off-target methylation at the non-targeted VEGFA locus, which was performed using similar methods as described in Example 13.\nHEK293T cells were transfected as described in Example 14, except that the cells were transfected with 50 ng each of a plasmid encoding the LTRP construct and a plasmid encoding the gRNA. […] 72 of the 95 top repressor domains were assessed together in one experiment where B2M expression was measured at 7, 14, 19, and 26 days after transfection, and the data shown in Tables 57-60."}, "[2]": {"system": "HBEGF gene", "format": "cell-based, human", "settings": "HEK293T; HBEGF-targeting spacer; toxin 0-2000 ng/mL"}, "[3]": {"system": "B2M locus", "experiment": "B2M reactivation by 5-azadC (DNMT1 inhibitor) in transfected HEK293T cells", "settings": "B2M-targeting gRNA, 5-azadC 0-20 uM", "quoted_text": "These transfected HEK293T cells were subsequently re-seeded at ˜30,000 cells well of a 96-well plate and were treated with 5-aza-2′-deoxycytidine (5-azadC), a DNMT1 inhibitor, at concentrations ranging from 0 μM to 20 μM. […] Treatments for each dose of 5-azadC for each experimental condition were performed in triplicates."}}}
{"molecule": "B1", "values": [{"measurement": "Mean % HLA-negative cells", "setting": "[1]; 6 days post-transfection", "result": 76.167, "unit": "%"}, {"measurement": "Mean % HLA-negative cells", "setting": "[1]; 13 days post-transfection", "result": 81.167, "unit": "%"}, {"measurement": "Mean % HLA-negative cells", "setting": "[1]; 20 days post-transfection", "result": 83.633, "unit": "%"}, {"measurement": "Mean % HLA-negative cells", "setting": "[1]; 27 days post-transfection", "result": 80.933, "unit": "%"}, {"measurement": "% HLA-negative cells (mean)", "setting": "[1]; HEK293T, 50 days post-transfection, spacer 0.0 (non-targeting)", "result": 0.29, "unit": "%"}, {"measurement": "% HLA-negative cells (mean)", "setting": "[1]; HEK293T, 50 days post-transfection, spacer 7.37 (B2M)", "result": 76.57, "unit": "%"}, {"measurement": "% HLA-negative cells (mean)", "setting": "[1]; HEK293T, 73 days post-transfection, spacer 0.0 (non-targeting)", "result": 0.71, "unit": "%"}, {"measurement": "% HLA-negative cells (mean)", "setting": "[1]; HEK293T, 73 days post-transfection, spacer 7.37 (B2M)", "result": 73.30, "unit": "%"}, {"measurement": "B2M repression (HLA-negative cells)", "setting": "[1]; HEK293T, LTRP #1, #4, #5 plasmids and controls, scaffold 174 spacer 7.37, time course to 73 days", "result": "durable silencing of the B2M expression"}, {"measurement": "repression of B2M expression by day 58", "setting": "[1]; HEK293T, plasmid with B2M-targeting gRNA scaffold 174 spacer 7.37", "result": "~75", "unit": "%"}, {"measurement": "protection from diphtheria toxin", "setting": "[2]", "result": "protects at all doses"}, {"measurement": "reactivation of the B2M gene upon 5-azadC treatment", "setting": "[3]", "result": "did not exhibit reactivation of the B2M gene"}]}
